# Patent US20190352409A1 (AUTOLUS, published 2019)
# T1: Transmembrane activator and calcium modulator and cyclophilin ligand (CAML) interactor (TACI), on cells (human, UniProt O14836 1-293)
# T1 chain: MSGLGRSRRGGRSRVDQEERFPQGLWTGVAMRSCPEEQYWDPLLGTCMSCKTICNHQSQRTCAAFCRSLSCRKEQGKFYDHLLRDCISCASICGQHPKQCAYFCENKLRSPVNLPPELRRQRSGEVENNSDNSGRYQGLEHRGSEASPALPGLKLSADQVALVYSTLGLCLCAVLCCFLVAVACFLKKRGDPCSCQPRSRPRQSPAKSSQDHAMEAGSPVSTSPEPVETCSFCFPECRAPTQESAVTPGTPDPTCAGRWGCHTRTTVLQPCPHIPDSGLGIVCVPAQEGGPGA
# T2: Transmembrane activator and calcium modulator and cyclophilin ligand (CAML) interactor (TACI), on cells (human, UniProt O14836 1-293)
# T2 construct: whole, on cells; also called TNFRSF13B; SupT1 TACI cells
# T2 sequence (looked up): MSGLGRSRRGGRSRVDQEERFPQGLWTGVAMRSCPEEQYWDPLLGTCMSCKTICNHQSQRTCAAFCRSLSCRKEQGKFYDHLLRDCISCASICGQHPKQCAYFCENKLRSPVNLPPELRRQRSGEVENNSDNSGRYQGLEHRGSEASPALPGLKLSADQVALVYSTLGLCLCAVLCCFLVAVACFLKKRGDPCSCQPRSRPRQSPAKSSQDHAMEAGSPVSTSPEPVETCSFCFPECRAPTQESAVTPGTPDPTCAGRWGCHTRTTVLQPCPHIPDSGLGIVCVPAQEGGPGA
# B1: 1G6 anti-TACI monoclonal antibody (mouse hybridoma) (antibody, V domains shown)
# VH: QVQLKQSGPGLVAPSQSLSITCTVSGFSLTSYGVDWVRQSPGKGLEWLGIIWGGGRTNYNSAFKSRLSISKDNSKSQVFLKMNSLQTDDTAMYYCASGDRAADYWGQGTSVTVSS
# VL: DIVMTQSQKFMSTTVGDRVTITCKASQNVGTAVAWYQQKPGQSPKLLIYSASNRYTGVPVRFTGSGSGTDFTLTINNMQSEDLADYFCQQYSSYPLTFGAGTKLELK
# notes: Tested as hybridoma supernatant from BalBC mice
# B2: 4B11 anti-TACI monoclonal antibody (mouse hybridoma) (antibody, V domains shown)
# VH: EVQLQQSVAELVRPGASVKLSCTASGFNIKNTYIHWVKQRPEQGLEWIGKIDPANGNSEYAPKFQGKATITADTSSNTAYLQLSSLTSEDTTIYYCTSGYGAYWGQGTTLTVSS
# VL: DIVLSQSPSSLAVSIGEKVTLSCKSSQSLLYSSNQKNYLAWFQQKPGQSLKLLIYWASTREFGVPDRFTGSGSGTDFTLTISSVKTEDLAVYYCQQYYTWTFGGGTKLEIK
# notes: as for B1
# B3: 2H6 anti-TACI monoclonal antibody (mouse hybridoma) (antibody, V domains shown)
# VH: EVQLQQSGPELVKPGASVRMSCKASGYTFTNYVMHWVKQKPGQGLEWIGYINPSNDDTKYTEKFKGKATLTSDKSSSTAYMELSSLTSEDSAVYYCARGTHGDYYALDYWGQGTSVTVSS
# VL: DIVLTQSPASLAVSLGQSVTISCRASESVEYYGTSLMQWYQQKPGQAPKLLIYGASNVESGVPARFSGSGSGTDFSLNIHPVEEDDIAMYFCQQSRKVPWTFGGGTKLEI
# B4: 2G2 anti-TACI monoclonal antibody (mouse hybridoma) (antibody, V domains shown)
# VH: QVTLKESGPGMLQPSQTLSLTCSFSGFSLSTFGMGVGWIRQPSGKGLEWLAHIWWDDAQYSNPALRSRLTISKDTSKNQVFLKIANVDTADTATYYCSRIHSYYSYDEGFAYWGQGTLVTVSS
# VL: DIVMTQSQKFMSTTVGDRVSITCKASQNVGTAVAWYQQKPGQSPKLLIYSASNRYTGVPDRFTGSGSGTDFTLTISNMQSEDLADYFCQQYSSYRTFGGGTKLEIKR
# notes: as for B1
# Key:
# [1] = target: T1, Transmembrane activator and calcium …; experiment: Biacore SPR
# [2] = target: T2, Transmembrane activator and calcium …; experiment: flow cytometry on TACI positive SupT1 cells (FIG. 6b)
# From the text: b) Confirmatory analysis of TACI binding by flow cytometry. Hybridoma lines were screened on TACI positive and BCMA positive SupT1 cells. The four hybridomas with the highest reactivity to SupT1 TACI cells were chosen for subcloning and characterisation
# Five mice with TACI positive sera were selected for a final immunization boost before the spleens were harvested for B cell isolation and hybridoma production. Hybridoma fusions of 10×96-well plates with lymphocytes from the selected mice were performed. Hybridoma supernatants were screened for reactive anti-TACI antibodies by ELISA screening against recombinant human TACI purified protein (Peprotech, 310-17), representative data is shown in FIG. 6a. ELISA positive hybridoma supernatants were tested by flow cytometry, on SupT1 cells engineered to overexpress TACI. As a control BCMA expressing SupT1 cells were used, FIG. 6b. Candidate hybridomas were expanded.
Binder,Kd [1] [nM],binding result [2]
B1,0.21,binds
B2,0.379,binds
B3,0.051,
B4,0.924,binds
